The results in this text go back to US11214614B2, “LTBP complex-specific inhibitors of TGFβ and uses thereof” (Scholar Rock, Inc., priority 2019, dated 2022).

The target in one assay is huLTBP1 proTGFβ1 (Homo sapiens, UniProt P01137+Q14766). Kind of assay: Octet (BLI) binding, IgG captured on AHC tips, antigen at 100 nM. The conditions noted are these: Table 9, cycle 3, IgG1-agly; for Hu LTBP1-proTGFβ1 Kon: 1:1 fit; for Hu LTBP1-proTGFβ1 Koff: 5-minute dissociation. The protocol:
(§1) Suitable methods for in vitro binding assays to determine the parameters of binding kinetics include Bio-layer Interferometry (BLI)-based assays such as Octet, and surface plasmon resonance (SPR)-based assays, such as Biacore systems (see, for example: biophysics.bioc.cam.ac.uk/wp-content/uploads/2011/02/Biacore_assay_handbook.pdf).
(§2) The affinity of SR-AB10, SR-AB2 and SR-AB13 was measured by Octet assay. The protocol used to measure the affinity of the antibodies to the complexes provided herein is summarized below.
(§3) • 96 well black polypropylene plates • AHC Octet tips (anti-human IgG Fc capture tips) (FortdBio) • 10× kinetics buffer (FortdBio) (diluted to 1× in PBS) • reiner Bio-One 96-Well Half Area Microplates (VWR cat #82050-044) Procedure:
(§4) Notes: The volume within each well during an Octet experiment is 100 uL.
(§5) A shake speed of 1000 rpm is used for all assay steps.
(§6) Pre-Wet Tips: • Biosensors must be pre-wet in 1× kinetics buffer (lx KB) for at least 10 minutes before starting an experiment. This can be done inside the Octet or on the bench.
(§7) Loading: • Tips are baselined in 1× KB for 1 minute before loading. • AHC tips are loaded with antibody at a concentration of 1 μg/mL (˜7 nM) for 3 minutes. A limit is set so that loading will stop when any one sensor reaches a response of 1 nanometer. • Tips are baselined in buffer for 1 minute after loading. The antibody should not dissociate from the tips during this time.
(§8) Antigen Association: • TGFβ1 in complex with various presentation molecules was associated to the immobilized antibodies at a single concentration of 100 nM in 1× KB.
(§9) Antibody Dissociation: • Dissociation in 1×KB was performed for 3 minutes.
(§10) Data Analysis using ForteBio Data analysis software 8.2: • Processing: align Y axis to last 5 seconds of baseline, perform inter-step correction with align to dissociation, and perform Savitzky-Golay filtering. • Analysis: 1:1 fitting model is utilized. Fitting is local and full. […] Results:
(§11) LTBP complex-specific antibodies from the first round of affinity maturation/optimization (SR-AB14, SR-AB16, SR-AB17, SR-AB18, SR-AB19) were selected for a second round of affinity maturation/optimization (i.e., CDR-H3 mutagenesis as described herein) and particular progeny antibodies (SR-AB20, SR-AB21, SR-AB22, SR-AB23, SR-AB24, SR-AB25, SR-AB26, SR-AB27, SR-AB28, and SR-AB29) were assessed for their ability to bind various proTGFβl constructs. Binding affinities of the optimized antibodies were measured by Octet against human LTBP1-proTGFβI, human LTBP3-proTGFb1, mouse LTBP1-proTGFβ1, mouse LTBP3-proTGFb1, and GARP-proTGFβl complexes, essentially as described in Example 6. In brief, test antibodies were immobilized to the surface of anti-human Fc capture biosensors (AHC) (ForteBio®) and binding was then tested against the various TGFβ1 complexes at a single concentration of 100 nM to assess binding affinities. The antigens were allowed to associate for 3 minutes followed by a 5-minute dissociation. Kinetics buffer (ForteBio®) was used throughout the experiment, and KD was determined using a 1:1 fitting model for each antibody antigen pair.
Binding affinities of the optimized antibodies were measured by Octet against human LTBP1-proTGFβ1, human LTBP3-proTGFβ1, mouse LTBP1-proTGFβ1, mouse LTBP3-proTGFβ1, and GARP-proTGFβ1 complexes, essentially as described in Example 6. In brief, test antibodies were immobilized to the surface of anti-human Fc capture biosensors (AHC) (ForteBio®) and binding was then tested against the various TGFβ1 complexes at a single concentration of 100 nM to assess binding affinities. The antigens were allowed to associate for 3 minutes followed by a 5-minute dissociation. Kinetics buffer (ForteBio®) was used throughout the experiment, and KD was determined using a 1:1 fitting model for each antibody antigen pair. […]
(In BLI a coated tip is dipped into the sample, and binding shifts an interference pattern.)

A further assay deals with huLTBP3 proTGFβ1 (Homo sapiens, UniProt P01137+Q9NS15). The assay is described as above. The settings on record: Table 9, cycle 3, IgG1-agly; for Hu LTBP3-proTGFβ1 Kon: 1:1 fit; for Hu LTBP3-proTGFβ1 Koff: 5-minute dissociation. The protocol: as §1, §2, §3, §4, §5, §6, §7, §8, §9, §10, §11
Binding affinities of the optimized antibodies were measured by Octet against human LTBP1-proTGFβ1, human LTBP3-proTGFβ1, mouse LTBP1-proTGFβ1, mouse LTBP3-proTGFβ1, and GARP-proTGFβ1 complexes, essentially as described in Example 6. In brief, test antibodies were immobilized to the surface of anti-human Fc capture biosensors (AHC) (ForteBio®) and binding was then tested against the various TGFβ1 complexes at a single concentration of 100 nM to assess binding affinities. The antigens were allowed to associate for 3 minutes followed by a 5-minute dissociation. Kinetics buffer (ForteBio®) was used throughout the experiment, and KD was determined using a 1:1 fitting model for each antibody antigen pair.

The subject of assay [1] is proTGFβ1 presented by endogenous LTBP1/3 in LN229 cells. Kind of assay: Endogenous LTBP caga assay: LN229 cells transfected with human proTGFβ1 only, CAGA12 luciferase reporter cells. It is filed as cell-based. The conditions noted are these: Table 20: protocol of Example 10 with Fabs (RefAb also as hIgG4), assay format not stated.

huLTBP1 proTGFβ1, sequence (P01137 30-390): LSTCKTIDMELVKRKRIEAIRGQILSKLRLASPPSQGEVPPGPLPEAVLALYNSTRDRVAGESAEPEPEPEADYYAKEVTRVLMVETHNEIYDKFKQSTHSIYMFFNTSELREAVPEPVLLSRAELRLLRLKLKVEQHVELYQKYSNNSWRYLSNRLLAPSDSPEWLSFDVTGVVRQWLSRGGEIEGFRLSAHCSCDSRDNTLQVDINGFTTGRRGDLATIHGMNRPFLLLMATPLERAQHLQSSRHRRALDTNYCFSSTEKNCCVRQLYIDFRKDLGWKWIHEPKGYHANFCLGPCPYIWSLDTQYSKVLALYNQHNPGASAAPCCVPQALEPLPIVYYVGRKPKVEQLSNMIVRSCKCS
huLTBP1 proTGFβ1, sequence (Q14766 347-1721 limits assumed): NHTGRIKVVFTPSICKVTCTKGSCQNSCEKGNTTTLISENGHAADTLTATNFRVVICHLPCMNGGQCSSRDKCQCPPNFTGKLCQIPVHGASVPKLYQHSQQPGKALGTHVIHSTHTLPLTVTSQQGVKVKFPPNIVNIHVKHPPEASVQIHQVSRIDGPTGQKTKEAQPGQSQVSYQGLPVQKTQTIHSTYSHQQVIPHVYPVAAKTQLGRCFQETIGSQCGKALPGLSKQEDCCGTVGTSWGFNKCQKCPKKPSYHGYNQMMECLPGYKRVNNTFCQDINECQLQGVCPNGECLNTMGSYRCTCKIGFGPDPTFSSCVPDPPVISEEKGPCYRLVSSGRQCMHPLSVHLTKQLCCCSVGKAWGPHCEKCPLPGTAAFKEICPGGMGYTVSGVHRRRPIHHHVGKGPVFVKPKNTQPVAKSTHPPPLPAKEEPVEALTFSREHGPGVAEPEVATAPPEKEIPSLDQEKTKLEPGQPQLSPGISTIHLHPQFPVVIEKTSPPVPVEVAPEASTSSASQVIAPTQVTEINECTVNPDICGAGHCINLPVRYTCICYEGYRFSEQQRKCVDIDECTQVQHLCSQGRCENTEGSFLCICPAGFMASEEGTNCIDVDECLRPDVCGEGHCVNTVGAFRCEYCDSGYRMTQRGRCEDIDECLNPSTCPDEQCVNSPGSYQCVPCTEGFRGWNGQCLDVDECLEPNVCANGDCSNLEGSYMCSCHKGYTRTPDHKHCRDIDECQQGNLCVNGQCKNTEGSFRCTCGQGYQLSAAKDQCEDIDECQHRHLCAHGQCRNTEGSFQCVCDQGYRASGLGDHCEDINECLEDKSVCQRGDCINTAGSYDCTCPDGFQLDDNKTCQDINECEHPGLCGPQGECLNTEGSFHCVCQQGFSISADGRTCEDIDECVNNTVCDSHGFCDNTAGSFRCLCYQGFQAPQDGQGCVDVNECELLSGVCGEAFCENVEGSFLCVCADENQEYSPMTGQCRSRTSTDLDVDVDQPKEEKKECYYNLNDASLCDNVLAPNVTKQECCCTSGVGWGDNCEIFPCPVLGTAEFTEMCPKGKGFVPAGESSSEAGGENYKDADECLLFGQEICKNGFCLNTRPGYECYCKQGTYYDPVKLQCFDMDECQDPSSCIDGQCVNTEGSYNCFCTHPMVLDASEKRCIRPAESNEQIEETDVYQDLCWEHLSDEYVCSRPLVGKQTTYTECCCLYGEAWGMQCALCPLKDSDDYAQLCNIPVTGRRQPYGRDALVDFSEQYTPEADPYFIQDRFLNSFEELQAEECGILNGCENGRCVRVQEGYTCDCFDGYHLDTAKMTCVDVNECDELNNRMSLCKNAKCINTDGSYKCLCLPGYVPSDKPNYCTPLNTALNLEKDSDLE
huLTBP3 proTGFβ1, sequence (P01137 30-390): as the sequence (P01137 30-390) above
huLTBP3 proTGFβ1, sequence (Q9NS15 44-1303): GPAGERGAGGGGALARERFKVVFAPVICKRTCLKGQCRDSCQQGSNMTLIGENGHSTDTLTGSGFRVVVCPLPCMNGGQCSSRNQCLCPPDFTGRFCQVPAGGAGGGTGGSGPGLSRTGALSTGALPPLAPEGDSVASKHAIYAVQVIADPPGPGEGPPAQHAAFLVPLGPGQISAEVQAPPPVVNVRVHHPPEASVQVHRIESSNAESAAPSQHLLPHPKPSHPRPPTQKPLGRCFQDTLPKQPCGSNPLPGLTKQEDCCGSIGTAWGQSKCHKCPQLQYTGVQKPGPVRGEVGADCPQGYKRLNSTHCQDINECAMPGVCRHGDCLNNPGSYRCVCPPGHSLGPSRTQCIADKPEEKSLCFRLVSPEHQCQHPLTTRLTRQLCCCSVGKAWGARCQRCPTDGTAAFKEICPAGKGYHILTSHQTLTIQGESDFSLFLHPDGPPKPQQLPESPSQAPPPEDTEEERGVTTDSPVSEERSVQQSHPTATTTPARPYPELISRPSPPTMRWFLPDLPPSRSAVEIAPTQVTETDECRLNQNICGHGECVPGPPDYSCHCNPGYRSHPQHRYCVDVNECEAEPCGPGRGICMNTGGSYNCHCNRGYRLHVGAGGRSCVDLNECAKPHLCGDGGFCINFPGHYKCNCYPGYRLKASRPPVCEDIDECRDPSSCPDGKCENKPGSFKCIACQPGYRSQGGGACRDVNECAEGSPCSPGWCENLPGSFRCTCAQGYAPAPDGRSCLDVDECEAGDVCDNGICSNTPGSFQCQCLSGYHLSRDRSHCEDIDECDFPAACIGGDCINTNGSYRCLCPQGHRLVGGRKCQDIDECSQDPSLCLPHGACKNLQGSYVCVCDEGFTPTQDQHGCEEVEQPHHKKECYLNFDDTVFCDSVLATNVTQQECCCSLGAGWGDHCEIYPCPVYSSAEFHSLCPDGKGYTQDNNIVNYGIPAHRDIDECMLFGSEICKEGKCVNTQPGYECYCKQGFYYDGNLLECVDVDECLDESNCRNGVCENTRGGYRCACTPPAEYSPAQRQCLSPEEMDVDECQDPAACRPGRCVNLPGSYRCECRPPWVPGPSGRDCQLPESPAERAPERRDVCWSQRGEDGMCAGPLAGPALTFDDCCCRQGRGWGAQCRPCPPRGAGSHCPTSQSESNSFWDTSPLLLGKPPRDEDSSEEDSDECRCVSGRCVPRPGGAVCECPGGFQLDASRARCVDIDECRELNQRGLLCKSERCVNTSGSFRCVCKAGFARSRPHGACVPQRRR
proTGFβ1 presented by endogenous LTBP1/3 in LN229 cells, sequence (P01137 30-390): as the sequence (P01137 30-390) above

B1: SR-AB44: cycle 3 light chain-optimized antibody, lineage SR-AB23; CDRs SEQ ID NO: 178-183 (antibody, V domains shown)
VH: QVQLVESGGGVVQPGRSLRLSCAASGFTFRSYVMHWVRQAPGKGLEWVAVISHEGSLKYYADSVKGRFTISRDNSKNTLYLQMNSLRAEDTAVYYCARPRIAARRGGFGYWGQGTLVTVSS
VL: NFMLTQPHSVSESPGKTVTISCTRSHGNIDDNYVQWYQQRPGSSPTTVIYEDNVRPSGVPDRFSGSIDSSSNSASLTISGLKTEDEADYYCQSYDSDNQLVVFGGGTKLTVL
As for B1, in the assay with huLTBP1 proTGFβ1, the “Hu LTBP1-proTGFβ1 Kon” value was found to be 280000 M⁻¹ s⁻¹ and the “Hu LTBP1-proTGFβ1 Koff” value turned out to be 6e-05 s⁻¹. Moreover, in the assay with huLTBP3 proTGFβ1, the “Hu LTBP3-proTGFβ1 Kon” value came out at 410000 M⁻¹ s⁻¹ and the “Hu LTBP3-proTGFβ1 Koff” value came out at 6e-05 s⁻¹.

B2: SR-AB60 Fab (antibody, V domains shown)
VH: QVQLVESGGGVVQPGRSLRLSCAASGFTFRSYVMHWVRQAPGKGLEWVAVISHEGSGKYYADSVKGRFTISRDNSKNTLYLQMNSLRAEDTAVYYCALPRIAARRGGFGTWGQGTLVTVSS
VL: NFMLTQPHSVSESPGKTVTISCTRSSGNIDYNYVQWYQQRPGSSPTTVIYEDNVRPSGVPDRFSGSIDSSSNSASLTISGLKTEDEADYYCQSYDYDTQGVVFGGGTKLTVL
As usually defined, the IC50 is the midpoint of a concentration-inhibition curve. The low end stands for greater potency, the high end for weaker potency. The molecule B2 came in with an IC50 in assay [1] of 0.742 nM.

B3: SR-AB55 Fab (antibody, V domains shown)
VH: QVQLVESGGGVVQPGRSLRLSCAASGFTFRSYVMHWVRQAPGKGLEWVAVISHEGSGKYYADSVKGRFTISRDNSKNTLYLQMNSLRAEDTAVYYCALPRIAARRGGFGSWGQGTLVTVSS
VL: NFMLTQPHSVSESPGKTVTISCTRSSGNIDYNYVQWYQQRPGSSPTTVIYEDNVRPSGVPDRFSGSIDSSSNSASLTISGLKTEDEADYYCQSYDYDNQAVVFGGGTKLTVL
B3: the IC50 in assay [1] was found to be 0.536 nM. This IC50 and that of the molecule before are within 1.5-fold of each other.

B4: SR-AB41 Fab (antibody, V domains shown)
VH: QVQLVESGGGVVQPGRSLRLSCAASGFTFRSYVMHWVRQAPGKGLEWVAVISHEGSLKYYADSVKGRFTISRDNSKNTLYLQMNSLRAEDTAVYYCARPRIAARRGGFGYWGQGTLVTVSS
VL: NFMLTQPHSVSESPGKTVTISCTRSSGNIDNNYVQWYQQRPGSSPTTVIYEDNQRPSGVPDRFSGSIDSSSNSASLTISGLKTEDEADYYCQSYDYDNQAVVFGGGTKLTVL
The molecule B4 had an IC50 in assay [1] of 0.486 nM.

B5: SR-AB61 Fab (antibody, V domains shown)
VH: QVQLVESGGGVVQPGRSLRLSCAASGFTFRSYVMHWVRQAPGKGLEWVAVISHEGSGKYYADSVKGRFTISRDNSKNTLYLQMNSLRAEDTAVYYCALPRIAARRGGFGTWGQGTLVTVSS
VL: NFMLTQPHSVSESPGKTVTISCTRSSGNIDYNYVQWYQQRPGSSPTTVIYEDNVRPSGVPDRFSGSIDSSSNSASLTISGLKTEDEADYYCQGYDWDTQGVVFGGGTKLTVL
The molecule B5 came in with a half-inhibitory concentration (IC50) in assay [1] of 0.47 nM.

B6: SR-AB51 Fab (antibody, V domains shown)
VH: QVQLVESGGGVVQPGRSLRLSCAASGFTFRSYVMHWVRQAPGKGLEWVAVISHEGSGKYYADSVKGRFTISRDNSKNTLYLQMNSLRAEDTAVYYCARPRIAARRGGFGTWGQGTLVTVSS
VL: NFMLTQPHSVSESPGKTVTISCTRSSGNIDYNYVQWYQQRPGSSPTTVIYEDNVRPSGVPDRFSGSIDSSSNSASLTISGLKTEDEADYYCQSYDYDNQAVVFGGGTKLTVL
The molecule B6 showed an IC50 in assay [1] of 0.535 nM.

B7: SR-AB49 Fab (antibody, V domains shown)
VH: QVQLVESGGGVVQPGRSLRLSCAASGFTFRSYVMHWVRQAPGKGLEWVAVISHEGSGKYYADSVKGRFTISRDNSKNTLYLQMNSLRAEDTAVYYCARPRIAARRGGFGSWGQGTLVTVSS
VL: NFMLTQPHSVSESPGKTVTISCTRSSGNIDYNYVQWYQQRPGSSPTTVIYEDNVRPSGVPDRFSGSIDSSSNSASLTISGLKTEDEADYYCQGYDWDTQGVVFGGGTKLTVL
As to B7, the IC50 in assay [1] came out at 1.02 nM.

B8: SR-AB45: cycle 3 light chain-optimized antibody, lineage SR-AB23; CDRs SEQ ID NO: 184-189 (antibody, V domains shown)
VH: QVQLVESGGGVVQPGRSLRLSCAASGFTFRSYVMHWVRQAPGKGLEWVAVISHEGSLKYYADSVKGRFTISRDNSKNTLYLQMNSLRAEDTAVYYCARPRIAARRGGFGYWGQGTLVTVSS
VL: NFMLTQPHSVSESPGKTVTISCTRSSGAIDDNYVQWYQQRPGSSPTTVIYEDFQRPSGVPDRFSGSIDSSSNSASLTISGLKTEDEADYYCQSYDDDLQGVVFGGGTKLTVL
B8: in the assay with huLTBP1 proTGFβ1, the “Hu LTBP1-proTGFβ1 Kon” value is 310000 M⁻¹ s⁻¹ and the “Hu LTBP1-proTGFβ1 Koff” value is 6e-05 s⁻¹. For the same molecule, in the assay with huLTBP3 proTGFβ1, the “Hu LTBP3-proTGFβ1 Kon” value turned out to be 491000 M⁻¹ s⁻¹ and the “Hu LTBP3-proTGFβ1 Koff” value worked out at 6e-05 s⁻¹.

B9: SR-AB48 Fab (antibody, V domains shown)
VH: QVQLVESGGGVVQPGRSLRLSCAASGFTFRSYVMHWVRQAPGKGLEWVAVISHEGSGKYYADSVKGRFTISRDNSKNTLYLQMNSLRAEDTAVYYCARPRIAARRGGFGSWGQGTLVTVSS
VL: NFMLTQPHSVSESPGKTVTISCTRSSGNIDYNYVQWYQQRPGSSPTTVIYEDNVRPSGVPDRFSGSIDSSSNSASLTISGLKTEDEADYYCQSYDYDTQGVVFGGGTKLTVL
The molecule B9 yielded a 50% inhibitory concentration (IC50) in assay [1] of 0.523 nM.

B10: SR-AB57 Fab (antibody, V domains shown)
VH: QVQLVESGGGVVQPGRSLRLSCAASGFTFRSYVMHWVRQAPGKGLEWVAVISHEGSGKYYADSVKGRFTISRDNSKNTLYLQMNSLRAEDTAVYYCALPRIAARRGGFGSWGQGTLVTVSS
VL: NFMLTQPHSVSESPGKTVTISCTRSSGNIDYNYVQWYQQRPGSSPTTVIYEDNVRPSGVPDRFSGSIDSSSNSASLTISGLKTEDEADYYCQGYDWDTQGVVFGGGTKLTVL
The molecule B10 came in with an IC50 in assay [1] of 0.775 nM.

B11: SR-AB42 Fab (antibody, V domains shown)
VH: QVQLVESGGGVVQPGRSLRLSCAASGFTFRSYVMHWVRQAPGKGLEWVAVISHEGSLKYYADSVKGRFTISRDNSKNTLYLQMNSLRAEDTAVYYCARPRIAARRGGFGYWGQGTLVTVSS
VL: NFMLTQPHSVSESPGKTVTISCTRSSGNIDNNYVQWYQQRPGSSPTTVIYEDNQRPSGVPDRFSGSIDSSSNSASLTISGLKTEDEADYYCQSYDYDTQGVVFGGGTKLTVL
Consider B11, for which the 50% inhibitory concentration (IC50) in assay [1] is 0.667 nM.

B12: SR-AB46 Fab (antibody, V domains shown)
VH: QVQLVESGGGVVQPGRSLRLSCAASGFTFRSYVMHWVRQAPGKGLEWVAVISHEGSGKYYADSVKGRFTISRDNSKNTLYLQMNSLRAEDTAVYYCARPRIAARRGGFGSWGQGTLVTVSS
VL: NFMLTQPHSVSESPGKTVTISCTRSSGNIDYNYVQWYQQRPGSSPTTVIYEDNVRPSGVPDRFSGSIDSSSNSASLTISGLKTEDEADYYCQSYDSDNQRVVFGGGTKLTVL
In assay [1], B12 returned a half-inhibitory concentration (IC50) of 0.495 nM.
